According to patent US20110052677A1 (RESEARCH DEVELOPMENT FOUNDATION, published 2011):

Biological target: T1, native SRPX2 of tEnd1.V^high mouse angiogenic endothelioma cells (mouse, UniProt Q8R054 26-468)
T1 construct: Endogenous protein from a mouse endothelioma cell line; also called native SPRXb 2; Sushi repeat-containing protein, X-linked, 2
T1 sequence (looked up): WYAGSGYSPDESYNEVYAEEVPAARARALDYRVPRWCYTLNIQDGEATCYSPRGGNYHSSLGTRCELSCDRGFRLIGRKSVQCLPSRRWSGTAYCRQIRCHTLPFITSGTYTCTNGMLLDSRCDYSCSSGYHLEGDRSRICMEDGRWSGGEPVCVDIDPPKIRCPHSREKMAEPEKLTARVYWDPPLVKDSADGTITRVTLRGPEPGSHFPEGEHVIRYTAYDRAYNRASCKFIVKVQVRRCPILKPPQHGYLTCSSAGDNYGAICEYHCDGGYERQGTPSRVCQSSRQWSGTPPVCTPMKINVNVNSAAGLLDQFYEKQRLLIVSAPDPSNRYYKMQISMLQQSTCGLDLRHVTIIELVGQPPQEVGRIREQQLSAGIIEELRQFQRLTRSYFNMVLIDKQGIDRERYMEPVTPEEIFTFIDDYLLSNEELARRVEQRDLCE
Experiment: anti-uPAR immunoprecipitate from tEnd1.V^high lysate, blot re-probed with rabbit anti-SRPX2 antibody
Experimental: Pull down assay of SRPX2 by uPAR—The tEnd1.V^high cells were cell surface biotinylated (0.5 mg/ml of biotin in DPBS) for 15 min, blocked with 10% FCS in PBS and lysed in lysis buffer with addition of 0.5% CHAPS and proteinase inhibitors (Sigma). Pre-clearing was preformed subsequently with the protein G beads (40 μl beads/1 ml lysate) (Protein G Sepharose 4 fast flow, General Electrics) for 3×5 min at RT. Immuno-precipitation was performed by adding sheep anti-uPAR antibodies, precipitated with protein G beads and eluted with a lysis buffer. Immunoblots were preformed with sheep anti-uPAR antibodies and detected by anti-sheep HRP labeled antibodies and visualized by ECL.

B1: vascular urokinase-type plasminogen activator receptor (uPAR) of tEnd1.V^high cells (receptor, mouse, UniProt P35456 24-298, looked up)
chain: LQCMQCESNQSCLVEECALGQDLCRTTVLREWQDDRELEVVTRGCAHSEKTNRTMSYRMGSMIISLTETVCATNLCNRPRPGARGRAFPQGRYLECASCTSLDQSCERGREQSLQCRYPTEHCIEVVTLQSTERSLKDEDYTRGCGSLPGCPGTAGFHSNQTFHFLKCCNYTHCNGGPVLDLQSFPPNGFQCYSCEGNNTLGCSSEEASLINCRGPMNQCLVATGLDVLGNRSYTVRGCATASWCQGSHVADSFPTHLNVSVSCCHGSGCNSPTG
notes: whole, on cells; Native GPI-linked receptor, immunoprecipitated from cell lysate after cell-surface biotinylation; Species is inferred from the mouse cell line; also called vascular uPAR; native uPAR
**Q.** Does B1 bind?
**A.** Result: binds
